Among the data in patent US20090098074A1 are Absorption and Relative absorption loss after 10% strength SDS treatment in % values, retold here.

For assay [1], the target named is human hair (hair keratin) (human). Briefly: quantitative hair-binding test on 5 mg human hair, anti-polyHistidine peroxidase/TMB; value standardized to the surface.
Assay [2] concerns the target human skin (skin keratin) (human). Briefly: quantitative skin-binding test on human keratinocytes in microtiter plates, anti-His antibody/TMB; value standardized to the surface.
Assay [3] has the same target. Briefly: quantitative skin-binding test; loss of A405 after 10% SDS relative to untreated skin.
For assay [4] the target is unchanged. Briefly: quantitative skin-binding test, after washing with 10% strength SDS; value standardized to the surface.
In assay [5] the target is human hair (hair keratin) (human). Briefly: quantitative hair-binding test, after washing with 10% strength SDS; value standardized to the surface.
The target is the same in assay [6]. Briefly: quantitative hair-binding test; loss of A405 after 10% SDS relative to untreated hair.
The target is the same in assay [7]. Briefly: quantitative hair-binding test; His-tagged protein on 5 mg human hair, anti-polyHistidine peroxidase conjugate, TMB.
The target is the same in assay [8]. Briefly: quantitative hair-binding test; renatured KBD-B on 5 mg human hair, anti-polyHistidine peroxidase conjugate, TMB.
Assay [9] has the same target. Briefly: quantitative hair-binding test; DENATURED KBD-B on 5 mg human hair, anti-polyHistidine peroxidase conjugate, TMB.

B1: KBD-D (SEQ ID No.: 168), keratin-binding domain D, H. sapiens plakophilin 1a with N-terminal histidine anchor (protein)
chain: MRGSHHHHHHGSACELGTMNHSPLKTALAYECFQDQDNSTLALPSDQKMKTGTSGRQRVQEQVMMTVKRQKSKSSQSSTLSHSNRGSMYDGLADNYNYGTTSRSSYYSKFQAGNGSWGYPIYNGTLKREPDNRRFSSYSQMENWSRHYPRGSCNTTGAGSDICFMQKIKASRSEPDLYCDPRGTLRKGTLGSKGQKTTQNRYSFYSTCSGQKAIKKCPVRPPSCASKQDPVYIPPISCNKDLSFGHSRASSKICSEDIECSGLTIPKAVQYLSSQDEKYQAIGAYYIQHTCFQDESAKQQVYQLGGICKLVDLLRSPNQNVQQAAAGALRNLVFRSTTNKLETRRQNGIREAVSLLRRTGNAEIQKQLTGLLWNLSSTDELKEELIADALPVLADRVIIPFSGWCDGNSNMSREVVDPEVFFNATGCLRNLSSADAGRQTMRNYSGLIDSLMAYVQNCVAASRCDDKSVENCMCVLHNLSYRLDAEVPTRYRQLEYNARNAYTEKSSTGCFSNKSDKMMNNNYDCPLPEEETNPKGSGWLYHSDAIRTYLNLMGKSKKDATLEACAGALQNLTASKGLMSSGMSQLIGLKEKGLPQIARLLQSGNSDVVRSGASLLSNMSRHPLLHRVMGNQVFPEVTRLLTSHTGNTSNSEDILSSACYTVRNLMASQPQLAKQYFSSSMLNNIINLCRSSASPKAAEAARLLLSDMWSSKELQGVLRQQGFDRNMLGTLAGANSLRNFTSRF
On to B1, for which the Absorption at 405 nm was determined as 0.88 in assay [1], 3.69 in assay [2], 3.15 in assay [4] and 0.62 in [5]. The Relative absorption loss after 10% strength SDS treatment in % in [3] was 15%; in assay [6] it was 30%.

B2: comparison Protein YaaD from B. subtilis (with His tag) (protein, UniProt P37527 1-294, looked up, not shown: small tags and cut ends)
chain: MAQTGTERVKRGMAEMQKGGVIMDVINAEQAKIAEEAGAVAVMALERVPADIRAAGGVARMADPTIVEEVMNAVSIPVMAKARIGHIVEARVLEAMGVDYIDESEVLTPADEEFHLNKNEYTVPFVCGCRDLGEATRRIAEGASMLRTKGEPGTGNIVEAVRHMRKVNAQVRKVVAMSEDELMTEAKNLGAPYELLLQIKKDGKLPVVNFAAGGVATPADAALMMQLGADGVFVGSGIFKSDNPAKFAKAIVEATTHFTDYKLIAELSKELGTAMKGIEISNLLPEQRMQERGW
As for B2, the Absorption at 405 nm in [7] stood at 0.088.

B3: KBD-B (SEQ ID No.: 166), keratin-binding domain B of human desmoplakin expressed from pQE30-KBD-B in E. coli (protein)
chain: MRGSHHHHHHGSACELEPHTGLLLLSVQKRSMSFQGIRQPVTVTELVDSGILRPSTVNELESGQISYDEVGERIKDFLQGSSCIAGIYNETTKQKLGIYEAMKIGLVRPGTALELLEAQAATGFIVDPVSNLRLPVEEAYKRGLVGIEFKEKLLSAERAVTGYNDPETGNIISLFQAMNKELIEKGHGIRLLEAQIATGGIIDPKESHRLPVDIAYKRGYFNEELSEILSDPSDDTKGFFDPNTEENLTYLQLKERCIKDEETGLCLLPLKEKKKQVQTSQKNTLRKRRVVIVDPETNKEMSVQEGVDLQPSLIS
As for B3, the Absorption at 405 nm in assay [2] came to 0.93; in assay [8], 1.59; in assay [9], 0.254; in assay [4], 0.185. The results for the Relative absorption loss after 10% strength SDS treatment in % in assay [3] and in [6] were 80% and 86%, respectively.
